Experimental data published in the DeepSol protein solubility set.

test: soluble on expression in E. coli; label from the status in PepcDB or PDB records

| Sequence | soluble on expression in E. coli |
| --- | --- |
| MFLSVFELFKIGIGPSSSHTMGPMTAANMFLREIMRCNFLRSSHTGISHIRVYLYGSLAFTGVGHATDRAVILGLLGEEAATVNPDNIDILLEKVTREKKVQPDGHPAYWFNLQSDLIFKRKEVLPGHTNGLAFEGLDADGNVLLRQTYYSIGGGFVVTEDELNCINGNTQSKTSKVPYPFDSARKMLSMAEKSGLSIAEMKRLNEETKMERSALNTGLDNIFSAITKCIDRGLSQEGELPGGLRVSRRAKKLYETLLENQKKNRNYPLLANDWLSVYAIAVNEENAAGGRVVTAPTNGAAGVVPAVLRYYLQFNDNSDQEGIHNFLLTAAAIGGVIKHNASISGAEVGCQGEVGTASSMAAAGLTAVLGGTPAQIENAAEIALEHHLGMTCDPVAGLVQIPCIERNAMGAVKAVTASSLALHGNGKHFVSLDACIETMRQTGHDMSERYKETSKAGLAVNAISC | not soluble |
| MFNKVSVIGLGYIGLPTAAVLASRGLDVVGVDVNAHAVDTINKGEIHIVEPDLDIVVRSAVMTGKLKATLTAEPADAFLVAVPTPFKGDNHEPDLSYIEAAAKTIAPVLAKGNLVVLESTSPVGTTEKLAQWLAEARPDLTFPQQKGIAADVKIAYCPERVLPGYVLQELVSNDRVIGGVSKACSEKAVALYKTFVKGECIVTNARTAEMAKLTENSFRDVNIAFANELSLVCNKLKINVWELIRLANRHPRVSILNPGPGVGGHCIAVDPWFIVNSCPDEAQLIRTAREVNDGKPHWVVDQVKQAADQFKKPIIACLGLAFKADIDDLRESPALDITKHLAESKVGQLLAVEPNITELPSKLAKQGIELVSLERALELANIVVVLVDHKEFKAADKTEFAKKVVIDTRGVVA | not soluble |
| MFNTTPINIDKWLKENEGLLKPPVNNYCLHKGGFTVMIVGGPNERTGYHINPTPEWFYQKKGSMLLKVVDETDAEPKFIDIIINEGDSYLLPGNVPHSPVRFADTVGIVVEQDRPGGENDKIRWYCSHCRQVVHESELQMLDLGTQVKEAILDFENDVEKRTCFHCKTLNYARPQSN | soluble |
| MFPLNFHYEDVLRQDLLLKLNYANVMEVPGLCEIRVVPKAPYNFIIKNGKLAMEIPCGQKFIQTQRGSTGKSFRSNPFLGSNKDKGYVSDLARQSTLRGHGMSNFLVRILTVMSLLDFPVEIRKNSIQFSMETEFCEFSPELEDHFEIFEHIRGFNVTIITSANTQDETLLLWSGFLQKDEGETQLEHHHHHH | not soluble |
| MFPVNCYVLWDDTKEAVVIDPGCFYEEEKQALKKFILTNELTVKHLLNTHLHLDHIFGNPFMLKEFGLSAEANKADEFWIDEAPKQSRMFGFQLQEEPVPLGKYLHDGDIITFGHTKLEAIHVPGHSPGSLVYYCKEENCMFSGDVLFQGSIGRADLSGGNFDELIDHICSRLFVLPNETVVYPGHGAPTTIGMEKAENPFFR | not soluble |
| MFRAMSTRKIHGGYEKLGDEEARLKRVSSVPASVYGHSRNPVQEVKKTPTAKPTGGSVHPLFSFFDVHFQRKKKNTAKKKSLATAKPEFARYMEYVREGGVWDPSSNAPVIHYR | not soluble |
| MFRISLEEFEGPLDLLLFFIKRDELDIYNIPISKITGDFIAYIHAMRRLNLEVAAEFIYMASMLMSIKARMLLPRAEPVDGEADEFDPRTELVQRLLEYKRIKEGASELELMALDRERMFPRGYFEELEPAVIDEMDEPVNRPTLYHLMLAYQSVLDNMPKVRTQNVTDAPVTVEEQSALIMARLGERLQVSFTSLFQEFREAIVIVVTFLAVLELCRNRKISVIVKEGVNDFWISQRDHAE | soluble |
| MFRLEDFNFHNKTVFLRVDLNSPMKDGKIISDARFKAVLPTIRYLIESGAKVVIGTHQGKPYSEDYTTTEEHARVLSELLDQHVEYIEDIFGRYAREKIKELKSGEVAILENLRFSAEEVKNKPIEECEKTFLVKKLSKVIDYVVNDAFATAHRSQPSLVGFARIKPMIMGFLMEKEIEALMRAYYSKDSPKIYVLGGAKVEDSLKVVENVLRRERADLVLTGGLVANVFTLAKGFDLGRKNVEFMKKKGLLDYVKHAEEILDEFYPYIRTPVDFAVDYKGERVEIDLLSENRGLLHQYQIMDIGKRTAEKYREILMKARIIVANGPMGVFEREEFAIGTVEVFKAIADSPAFSVLGGGHSIASIQKYGITGITHISTGGGAMLSFFAGEELPVLRALQISYEKFKEVVK | soluble |
| MFRTAETSRDTLITTAYRLHRTRWRILEPYRRLKNALKKLQEDYLKSKEANALMRYVKLGQSVREVAMLEKQYWKLLNIPAQEGTEDANCYVVKIIELLEDTPTQLPPTRGIGALLQSTIGKPAEANVDTVLHDSLKARKSEDLVKECEGLYAQLYRLTKKYLGLRRLIKELHDKYEATRMFPIVPRYAMLKKMIKATLRAPEFADICHEQTE | not soluble |
| MFSIDDVAKQAQSLAGKGYETPKSNLPSVFRDMKYADYQQIQFNHDKAYWNNLKTPFKLEFYHQGMYFDTPVKINEVTATAVKRIKYSPDYFTFGDVQHDKDTVKDLGFAGFKVLYPINSKDKNDEIVSMLGASYFRVIGAGQVYGLSARGLAIDTALPSGEEFPRFKEFWIERPKPTDKRLTIYALLDSPRATGAYKFVVMPGRDTVVDVQSKIYLRDKVGKLGVAPLTSMFLFGPNQPSPANNYRPELHDSNGLSIHAGNGEWIWRPLNNPKHLAVSSFSMENPQGFGLLQRGRDFSRFEDLDDRYDLRPSAWVTPKGEWGKGSVELVEIPTNDETNDNIVAYWTPDQLPEPGKEMNFKYTITFSRDEDKLHAPDNAWVQQTRRSTGDVKQSNLIRQPDGTIAFVVDFTGAEMKKLPEDTPVTAQTSIGDNGEIVESTVRYNPVTKGWRLVMRVKVKDAKKTTEMRAALVNADQTLSETWSYQLPANEVEHHHHHH | soluble |
| MFSLSKTLAALLLCSAASLAQAAETAICYNCPPEWADWGTQLKAIADSTSVQVPLDNKNSGQALAQIVAEQAAPVADVVYYGVTFGLQAQKAGVVDTYKPKHWDDIPAGLKDPQGHWFAIHSGTLGIMVNVDALGGLPVPQSWADLLKPEYKGMVGYLDPSSAFVGYVSAVAINQAMGGSLDNFGPAIDYFQKLAKNSPIVPKQTAYARALSGELPILVDYDFNAYRARYKDKANVAFVIPKEGTIGVPYVMSMVAKAPHRANAEKVLDFVLSDAGQALWAKAYLRPVRSKMPADVAAQFLPDSDYARAGVVDYQRMAAVQEAFAARYLREVK | not soluble |
| MFSRPGLPVEYLQVPSASMGRDIKVQFQGGGPHAVYLLDGLRAQDDYNGWDINTPAFEEYYQSGLSVIMPVGGQSSFYTDWYQPSQSNGQNYTYKWETFLTREMPAWLQANKGVSPTGNAAVGLSMSGGSALILAAYYPQQFPYAASLSGFLNPSEGWWPTLIGLAMNDSGGYNANSMWGPSSDPAWKRNDPMVQIPRLVANNTRIWVYCGNGTPSDLGGDNIPAKFLEGLTLRTNQTFRDTYAADGGRNGVFNFPPNGTHSWPYWNEQLVAMKADIQHVLNGATPPAAPAAPAALEHHHHHH | soluble |
| MFSSSKLVNAVAQRLLDTIEQGRWVAGQMLPGQRELAEQMEISRPSLREAIMVLETLGVVRSLPGKGVMVLERSEPLREVAAPGEATMEDVLQLRYALEPFIVGIVAQSAGAAEISELRLLLLDLREAVEDGDPQALVEAYTAFHRRLVKLTSNPIFLSVSEQIGSALERSDNLVRRQPEYAEEILQEHDAILRAIRQHDSERASQAMRQHILNEGARLNIDLRLPQV | not soluble |
| MFTGIINHCGEIRSMEALPDHTVLSIDTQFSDLQLGESIAIDGICVTVTQKKLGSFSCDLSPETLACTKARDYKIGSRINLERALRLTDRLGGHFVSGHVDQTAILESQKKHAEFIQMDFKNSSEERWNYLIPKGSVAVNGVSLTVNSVAGDYFSVMLIPHTLEHTNLNDLKEGQIVNIEFDLITKIIVQKTREALSHAKTI | soluble |
| MFYDLAIGIYDLLVHLAAPFSRKPRKMMKGHWVVYDLLRQQVEKDERYIWFHAASLGEFEQGRPLIESIRERYPDYKILQTFFSPSGYEVRKNYRGADIVCYLPFDKPRNVKKFLDIVNPCMAFFIKYEFWKNYLDELHKRRIPVYSVSSIFRKDQIFFKWYGGTYRNVLKDFDHLFVQNEASKRFLAKIGITRVTVVGDTRFDRVLQIREQAKELPLVEQFKNGAFTFVAGSSWGPDEDLFIEYFNSHPEMKLIIAPHVIDENHLVEIIGKLKRPSVRYTRADEKNVRKADCLIIDCFGLLSSIYRYGEIAYIGGGFGVGIHNTLEAAVYGIPVIFGPKYQKFMEAMQLIEAGGAYSIKDYNELKTLLDRLLTDEAFLRKTGTNAGNYVIGNSGATEKVLHMINFLEHHHHHH | not soluble |
| MGAFFMSVVSAFAGAAEACRPTGALQNVEVARVVDGDTVRLRDGRSVRLIGINAPELAHNGRTTEPFAEAAKQRLQALVSASDGRLALQPGRQARDHYGRTLAHLFDASGANLEARLLGEGLGYLVAVAPNTELTACQQAAERAARSANLGVWKRSPVLSLDRLAQSGFAVVRGRVLEVERNRGGIWLEMDGPLVLRIEPKVLKAFDAKRVMQMAGRSLEVRGWVVDRSRRGAVPAGKARWQMSVTDPAMLEWLPLEHHHHHH | not soluble |
| MGAIAPSSNILAKAMVDAIDFEVAKCIVELGPGTGSFTKEIMKRKKKRTTFILIEINEVFFKKLQKQYEDDASVVVIHGSAENIQRYVEELQIKGVDYVLSGLPFTSLPKEESSRILNNVMESLRENGRFITFQYSLVKKGFIEDFFPDIQLKKVWFNFPPAYVFSCKKSLEHHHHHH | soluble |
| MGCLGNSKTEDQRNEEKAQREANKKIEKQLQKDKQVYRATHRLLLLGAGESGKSTIVKQMRILHVNGFNGEGGEEDPQAARSNSDGEKATKVQDIKNNLKEAIETIVAAMSNLVPPVELANPENQFRVDYILSVMNVPDFDFPPEFYEHAKALWEDEGVRACYERSNEYQLIDCAQYFLDKIDVIKQDDYVPSDQDLLRCRVLTSGIFETKFQVDKVNFHMFDVGGQRDERRKWIQCFNDVTAIIFVVASSSYNMVIREDNQTNRLQEALNLFKSIWNNRWLRTISVILFLNKQDLLAEKVLAGKSKIEDYFPEFARYTTPEDATPEPGEDPRVTRAKYFIRDEFLRISTASGDGRHYCYPHFTCAVDTENIRRVFNDCRDIIQRMHLRQYELLGGHHHHHH | soluble |
| MGDDCSDHSSLCKHCCYEMIRDSIKDYKSGPLYARCPQCFRNISSLTRRKRRLTSEGHDENCPAPMVPMVNAEHSISLCDYTTSMMGGGQVNKGFESSSSLFLCFRKFPIGNYNQKFFVGDSLKNGRIQYRNTKYEYSKKHFRSYKFFMIFQICRSKFQNL | not soluble |
| MGDVQMGNCLRIPSANMAPALPEHGTAEASTSNPMPHAGNMTAGPQEHTAVEGCAGRQIADMWLSSLERPARRPSGSRSQPTAQSRPQSKLEKLTEQRQSMLQRAIILEDQWRSLQERCARTSVGGRQAFNLDILKGIIDRDKQALERMGGEGSYIAERHLHRIERTLQDFEKKISNQKKLQSHLAKANDFLARLKLLKDELSSRGENKDILNDIDLNIKDLEGILNELTRIEANGAGIQYDGCRGGAIAYFDSVTISLEAMLRSQDSGYFDYMRPALANVLQDGYSPSRRKAVSDAGMRGGASDGIS | not soluble |
| MGDVSAVSSSGNILLPQQDEVGGLSEALKKAVEKHKTEYSGDKKDRDYGDAFVMHKETALPLLLAAWRHGAPAKSEHHNGNVSGLHHNGKSELRIAEKLLKVTAEKSVGLISAEAKVDKSAALLSSKNRPLESVSGKKLSADLKAVESVSEVTDNATGISDDNIKALPGDNKAIAGEGVRKEGAPLARDVAPARMAAANTGKPEDKDHKKVKDVSQLPLQPTTIADLSQLTGGDEKMPLAAQSKPMMTIFPTADGVKGEDSSLTYRFQRWGNDYSVNIQARQAGEFSLIPSNTQVEHRLHDQWQNGNPQRWHLTRDDQQNPQQQQHRQQSGEEDDA | not soluble |
| MGEKAFKRPNVLSTIGAFGYRAAVFRNVLEAAKLDPSIYYTFISGPEIDPEQFSKVPENVEFTGFTENPFPYYKGSDLVITAGGHGTIMESLAFGLPILSFPDEKHAEQENNASVLEEAGYGKRMSYLTPPEVILACIREIFEDENYSKKTRRLMELAEVLEHHHHHH | soluble |
